Drawing on patent US20240083945A1 (Bicycle, published 2024), this text covers Kd for 48 molecules.

As a reminder, the Kd is the concentration at which binding is half-saturated. Low readings indicate higher affinity, high ones lower affinity.

B1: BCY20263 (peptide)
peptide: ACTTDFCNNRYVVNRCA
modifications: N-terminal acetyl (Ac); Ci, Cii and Ciii cysteines covalently bound to TBMT scaffold
B2: BCY20264 (peptide)
peptide: ACWTDFCNNRYVVNRCA
modifications: N-terminal acetyl (Ac); Ci, Cii and Ciii cysteines covalently bound to TBMT scaffold
B3: BCY20266 (peptide)
peptide: ACMQNPCRWVNIPCA
modifications: N-terminal acetyl (Ac); Ci, Cii and Ciii cysteines covalently bound to TATA scaffold

The test has as its target T1, COVID-19 nucleocapsid protein (N-protein) (severe acute respiratory syndrome …, UniProt P0DTC9 1-419).
T1 construct: also called nucleocapsid protein (N-protein) of severe acute respiratory syndrome coronavirus 2 (SARS-CoV-2)
Put plainly: bio-layer interferometry (BLI). (In general: BLI is a label-free optical method that tracks binding on a fibre tip over time.)
In the case of ACPQTYCFINNRYCA (Ci, Cii and Ciii cysteines covalently bound to TBMT scaffold) [BCY16567], the Kd was found to be 1010 nM.

As to B1, the dissociation constant (Kd) was found to be 11.8 nM. To ACPVRIEYPICDTSICA (Ci, Cii and Ciii cysteines covalently bound to TBMT scaffold) [BCY16582] belongs 1790 nM; to ACQYTFCENRYKICA (Ci, Cii and Ciii cysteines covalently bound to TATA scaffold) [BCY16564], 2080 nM; to ACKRGYCPVTDTFCA (Ci, Cii and Ciii cysteines covalently bound to TBMT scaffold) [BCY17640], 43000 nM. The molecule ACHTPDWSDFCAGRYCA (Ci, Cii and Ciii cysteines covalently bound to TBCU scaffold) [BCY16581] registered a Kd of 8040 nM. The molecule ACSIGYCPVTDTFCA (Ci, Cii and Ciii cysteines covalently bound to TBMT scaffold) [BCY17641] registered a Kd of 1740 nM.

ACTTDFCNSRYIVNTCA (Ci, Cii and Ciii cysteines covalently bound to TBMT scaffold) [BCY16570]: the equilibrium dissociation constant (Kd) turned out to be 442 nM. For ACTTDFCNNRYVVNQCSYPR (Ci, Cii and Ciii cysteines covalently bound to TBMT scaffold) [BCY18973], the dissociation constant Kd was determined as 225 nM.

As for ACNAWFCDGRFYMCA (Ci, Cii and Ciii cysteines covalently bound to TBCU scaffold) [BCY16569], binding was characterised by a dissociation constant (Kd) of 4270 nM. To AYTDCTTDFCNNRYVVNRCA (Ci, Cii and Ciii cysteines covalently bound to TBMT scaffold) [BCY18974] belongs 20.6 nM; to ACTTDFCNNRYVVNQCQEQS (Ci, Cii and Ciii cysteines covalently bound to TBMT scaffold) [BCY18983], 2450 nM. The molecule QYESCTTDFCNNRYVVNRCA (Ci, Cii and Ciii cysteines covalently bound to TBMT scaffold) [BCY18975] displayed a Kd of 63.8 nM. Molecule MPTSCVTDFCNNRYVVNRCA (Ci, Cii and Ciii cysteines covalently bound to TBMT scaffold) [BCY18984] displayed a Kd of 72.8 nM.

QYESCTTDFCNNRYVVNRCGSDN (Ci, Cii and Ciii cysteines covalently bound to TBMT scaffold) [BCY18979] showed a dissociation constant Kd of 108 nM. ACTKGYCPLTDMFCA (Ci, Cii and Ciii cysteines covalently bound to TBMT scaffold) [BCY17639] registered a Kd of 1240 nM. ACTTDFCNDRYIVNSCA (Ci, Cii and Ciii cysteines covalently bound to TBMT scaffold) [BCY17630] gave a dissociation constant (Kd) of 331 nM. For RRAVCTTDFCNNRYVVNRCDDYH (Ci, Cii and Ciii cysteines covalently bound to TBMT scaffold) [BCY18978], the equilibrium dissociation constant (Kd) was 40.2 nM. The value for ACIVGYCPATDDFCA (Ci, Cii and Ciii cysteines covalently bound to TBMT scaffold) [BCY16571] was 797 nM; that for RRAVCTTDFCNNRYVVNRCA (Ci, Cii and Ciii cysteines covalently bound to TBMT scaffold) [BCY18976] was 19.7 nM. To ACTTDFCNNRYVTQRCA (Ci, Cii and Ciii cysteines covalently bound to TBMT scaffold) [BCY17629] belongs 41.7 nM; to ACWTDFCNNRYVTQRCA (Ci, Cii and Ciii cysteines covalently bound to TBMT scaffold) [BCY17634], 64.2 nM. To ACNTWCMDNDRIYFNCA (Ci, Cii and Ciii cysteines covalently bound to TBMT scaffold) [BCY16574] belongs 1030 nM; to ACSVGYCPLTNTFCA (Ci, Cii and Ciii cysteines covalently bound to TBMT scaffold) [BCY16572], 1660 nM; to ACNGDFCNNRYIVNTCA (Ci, Cii and Ciii cysteines covalently bound to TBMT scaffold) [BCY17625], 27.6 nM. On to ACTTDFCNDRYIINPCA (Ci, Cii and Ciii cysteines covalently bound to TBMT scaffold) [BCY17631], for which binding was characterised by a dissociation constant (Kd) of 321 nM. The molecule ACEGDFCDGRYIVNTCA (Ci, Cii and Ciii cysteines covalently bound to TBMT scaffold) [BCY17627] displayed a Kd of 36.9 nM. Molecule ACTTDFCNNRYVVNRCDDYH (Ci, Cii and Ciii cysteines covalently bound to TBMT scaffold) [BCY18972] had a Kd of 22.2 nM. The molecule ACYVGYCPATDTFCA (Ci, Cii and Ciii cysteines covalently bound to TBMT scaffold) [BCY17638] returned a Kd of 805 nM.

Molecule ACDGNFCDNRYIVNTCA (Ci, Cii and Ciii cysteines covalently bound to TBMT scaffold) [BCY17626] showed a Kd of 263 nM. In the case of ACTTDFCNNRYVVNRCEALE (Ci, Cii and Ciii cysteines covalently bound to TBMT scaffold) [BCY18970], binding was put at a Kd of 29.3 nM. Take ACFRGYCPQTNLFCA (Ci, Cii and Ciii cysteines covalently bound to TBMT scaffold) [BCY16573]: binding was put at a Kd of 728 nM. The value for ACTTDFCNDRYITELCA (Ci, Cii and Ciii cysteines covalently bound to TBMT scaffold) [BCY17632] was 2600 nM. For the molecule ACDGNFCDNRYVTQRCA (Ci, Cii and Ciii cysteines covalently bound to TBMT scaffold) [BCY17635], binding was characterised by a dissociation constant (Kd) of 40300 nM.

Turning to ACTTDFCNNRYVVNRCA (Ci, Cii and Ciii cysteines covalently bound to TBMT scaffold) [BCY17628], binding was put at a Kd of 16.6 nM.

The molecule B2 registered a Kd of 10.1 nM.

In turn, LEQICVTDFCNNRYVVNRCA (Ci, Cii and Ciii cysteines covalently bound to TBMT scaffold) [BCY18985] yielded a Kd of 28.1 nM. Molecule B3 gave a Kd of 9.7 nM. To EKQYCTTDFCNNRYVVNRCA (Ci, Cii and Ciii cysteines covalently bound to TBMT scaffold) [BCY18977] belongs 22.3 nM.

On to HSLICVTDFCNNRYVVNRCA (Ci, Cii and Ciii cysteines covalently bound to TBMT scaffold) [BCY18986], for which the equilibrium dissociation constant (Kd) came out at 10.6 nM. The value for ACTSYFCNNRFTLNTCA (Ci, Cii and Ciii cysteines covalently bound to TBMT scaffold) [BCY16566] was 1110 nM. The value for ACDGNFCDNRYVVNRCA (Ci, Cii and Ciii cysteines covalently bound to TBMT scaffold) [BCY17636] was 1730 nM; that for ACWTDFCNNRYIVNTCA (Ci, Cii and Ciii cysteines covalently bound to TBMT scaffold) [BCY17624] was 56.3 nM; that for ACSEGWCFRENRYQVCA (Ci, Cii and Ciii cysteines covalently bound to TATA scaffold) [BCY16565] was 1340 nM. To ACKTYCFMENRYSLSCA (Ci, Cii and Ciii cysteines covalently bound to TBMT scaffold) [BCY16563] belongs 1540 nM; to ACTTDFCNNRYVVNLCQNKS (Ci, Cii and Ciii cysteines covalently bound to TBMT scaffold) [BCY18982], 79.7 nM; to ACTTDFCNNRYVVNRCGSDN (Ci, Cii and Ciii cysteines covalently bound to TBMT scaffold) [BCY18971], 27.9 nM. As for ACSRGYCPRTNTFCA (Ci, Cii and Ciii cysteines covalently bound to TBMT scaffold) [BCY17637], the Kd worked out at 1050 nM.
